This assay concerns the target papain (UniProt P00784). As to the kind of experiment: enzyme inhibition assay (Dixon plot); various amounts of recombinant protein with 10 ug papain (1.24 uM final in 350 ul), 0.1 M sodium phosphate pH 6.0, 1 mM EDTA, 2 mM beta-mercaptoethanol, 37°C, substrate BANA; Ki from plots of 1/v versus [I].
UniProt P00784, sequence (P00784 134-345): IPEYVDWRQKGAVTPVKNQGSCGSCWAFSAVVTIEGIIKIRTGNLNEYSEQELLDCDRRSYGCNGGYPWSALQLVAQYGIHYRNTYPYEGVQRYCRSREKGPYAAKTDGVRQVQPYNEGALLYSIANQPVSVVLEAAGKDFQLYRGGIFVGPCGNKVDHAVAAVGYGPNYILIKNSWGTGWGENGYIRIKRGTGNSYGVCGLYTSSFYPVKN

On to “SiCYS, sesame seed group II phytocystatin (non-fusion recombinant) (natural protein)”, for which the Ki stood at 19 nM.
In the case of “SiCYS-N, N-terminal domain of SiCYS (non-fusion recombinant) (domain or fragment)”, the Ki amounted to 79 nM.

The values above are taken from article PMC5432954.
